Reference: paper PMC11021369, “Resolving the polycistronic aftermath: Essential role of topoisomerase IA in preventing R-loops in Leishmania” (The Journal of Biological Chemistry, 2024)

Assays:
[1] = target: T1, Human TOPIB (Homo sapiens, UniProt P11387); assay: plasmid DNA relaxation assay with commercial human TOPIB, […] drug (Fig. S3C); type: biochemical
T1 construct: gene TOP1
T1 sequence (P11387 2-765): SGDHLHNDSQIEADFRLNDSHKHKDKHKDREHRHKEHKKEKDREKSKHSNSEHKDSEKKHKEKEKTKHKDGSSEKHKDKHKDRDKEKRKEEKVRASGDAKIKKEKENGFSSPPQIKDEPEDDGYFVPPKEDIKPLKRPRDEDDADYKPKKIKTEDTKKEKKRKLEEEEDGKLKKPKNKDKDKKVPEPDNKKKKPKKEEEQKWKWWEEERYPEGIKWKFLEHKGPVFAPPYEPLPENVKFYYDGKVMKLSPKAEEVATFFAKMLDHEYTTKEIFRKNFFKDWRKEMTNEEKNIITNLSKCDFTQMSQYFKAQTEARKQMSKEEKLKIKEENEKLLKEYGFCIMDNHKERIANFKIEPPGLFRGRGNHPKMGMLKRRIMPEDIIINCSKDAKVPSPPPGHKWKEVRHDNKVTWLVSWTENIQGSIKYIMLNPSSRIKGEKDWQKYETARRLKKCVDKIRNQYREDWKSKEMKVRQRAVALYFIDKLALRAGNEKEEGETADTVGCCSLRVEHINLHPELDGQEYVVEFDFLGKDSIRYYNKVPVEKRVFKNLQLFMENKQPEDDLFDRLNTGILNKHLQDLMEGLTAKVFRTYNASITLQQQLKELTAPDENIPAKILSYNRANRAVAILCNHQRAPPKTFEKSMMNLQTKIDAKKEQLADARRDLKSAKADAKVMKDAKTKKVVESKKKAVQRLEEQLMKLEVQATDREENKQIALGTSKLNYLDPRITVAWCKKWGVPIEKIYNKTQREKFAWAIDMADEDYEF

[2] = target: T2, LdTOPIA (Leishmania donovani DNA topoisomerase IA) (Leishmania donovani, UniProt A0A3S7WW83); assay: plasmid DNA relaxation assay with purified LdTOPIA ([…] drug), agarose gel; type: biochemical
T2 construct: gene LdCL_210006600; full length, 7xHis-LdTOPIA-6xHis (809 aa), expressed in L. tarentolae LtT7TR
T2 sequence (A0A3S7WW83 1-809): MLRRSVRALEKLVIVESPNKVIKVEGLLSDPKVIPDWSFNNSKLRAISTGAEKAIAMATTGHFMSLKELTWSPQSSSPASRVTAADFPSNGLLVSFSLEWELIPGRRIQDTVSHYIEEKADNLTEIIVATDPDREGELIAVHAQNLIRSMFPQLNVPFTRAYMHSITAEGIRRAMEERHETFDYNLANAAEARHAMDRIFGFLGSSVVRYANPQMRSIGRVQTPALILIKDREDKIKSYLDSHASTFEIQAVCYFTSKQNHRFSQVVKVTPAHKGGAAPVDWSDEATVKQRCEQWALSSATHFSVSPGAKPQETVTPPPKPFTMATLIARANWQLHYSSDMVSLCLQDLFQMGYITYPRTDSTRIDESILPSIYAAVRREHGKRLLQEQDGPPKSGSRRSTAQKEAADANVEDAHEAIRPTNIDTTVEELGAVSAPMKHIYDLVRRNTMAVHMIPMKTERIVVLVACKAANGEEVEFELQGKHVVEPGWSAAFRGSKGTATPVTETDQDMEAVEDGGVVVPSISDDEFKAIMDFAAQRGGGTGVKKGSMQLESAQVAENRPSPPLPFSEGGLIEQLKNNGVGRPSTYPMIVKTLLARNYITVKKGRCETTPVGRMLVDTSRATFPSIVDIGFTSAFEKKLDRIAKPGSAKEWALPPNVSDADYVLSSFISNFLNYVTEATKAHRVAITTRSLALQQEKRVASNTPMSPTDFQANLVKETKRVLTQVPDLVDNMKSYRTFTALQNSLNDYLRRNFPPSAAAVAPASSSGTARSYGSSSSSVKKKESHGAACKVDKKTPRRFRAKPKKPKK

[3] = target: T3, LdTOPIA (DNA topoisomerase IA) (Leishmania donovani DD8, UniProt A0A3S7WW83 1-809); assay: fluorescence anisotropy; 30 nM DNA, 0.5 mM EDTA; 50 mM Tris pH 7.5, 100 mM NaCl, 0.5 mM DTT, 0.5 mM EDTA, 5% glycerol, 15 min, 25 °C (EMSA gel at 4 °C); conditions: protein: recombinant, tags: N-term 7xHis, C-term 6xHis
T3 sequence: T2 sequence (A0A3S7WW83 1-809)

[4] = target: T3, LdTOPIA (DNA topoisomerase IA); assay: fluorescence anisotropy; 50 mM Tris pH 7.5, 100 mM NaCl, 0.5 mM DTT, 0.5 mM EDTA, 5% glycerol, 15 min, 25 °C (EMSA gel at 4 °C); conditions: protein: recombinant; tags: N-term 7xHis, C-term 6xHis; label: 5' FAM on RNA strand; blunt
[5] = target: T4, RNase H I, catalytically inactive D210N (Homo sapiens, UniProt O60930 1-286, D210N); assay: fluorescence anisotropy; 30 nM duplex, 2-200 nM protein; 50 mM Tris pH 7.5, 100 mM NaCl, 0.5 mM DTT, 0.5 mM EDTA, 5% glycerol, 15 min, 25 °C (EMSA gel at 4 °C); conditions: protein: recombinant; tags: His (pET15b; Ni-NTA purified); label: 5' FAM on RNA strand; blunt
T4 sequence: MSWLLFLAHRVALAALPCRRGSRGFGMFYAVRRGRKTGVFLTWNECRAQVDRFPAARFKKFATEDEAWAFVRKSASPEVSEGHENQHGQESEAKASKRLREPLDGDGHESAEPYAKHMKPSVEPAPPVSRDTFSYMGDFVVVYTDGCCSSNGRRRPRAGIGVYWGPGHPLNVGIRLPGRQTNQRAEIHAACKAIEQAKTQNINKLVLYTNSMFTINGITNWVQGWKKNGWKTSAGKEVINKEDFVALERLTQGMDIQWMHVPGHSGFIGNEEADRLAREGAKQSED

CC[C@@]1(O)C(=O)OCc2c1cc1n(c2=O)Cc2cc3ccccc3nc2-1 [CPT, Camptothecin]
plasmid DNA relaxation assay with commercial human TOPIB, 10 μM drug (Fig. S3C) [1]: Etoposide and CPT could effectively inhibit plasmid relaxation of the TOPIB and TOPII respectively (Fig. S3C)

CN(C)CCCN1c2ccccc2CCc2ccccc21 [imipramine]
plasmid DNA relaxation assay with purified LdTOPIA (10, 20 and 40 μM drug), agar [2]: Both imipramine and norclomipramine (NCL) could inhibit the DNA relaxation by LdTOPIA

TATTGGGCGCTCTTCCGCTTCCTCGCTCACTG (ssDNA) [32-nt ssDNA, FAM]
Kd ([3]; label: 5' FAM): 3.16 ± 0.12 nM

B1: 32-bp dsDNA, FAM (dsDNA)
DNA 1: TATTGGGCGCTCTTCCGCTTCCTCGCTCACTG
DNA 2: CAGTGAGCGAGGAAGCGGAAGAGCGCCCAATA
Kd ([3]; label: 5' FAM on strand 1, blunt): 8.1 ± 0.23 nM

B2: DNA:RNA duplex, FAM-RNA (DNA:RNA)
RNA: UAUUGGGCGCUCUUCCGCUUCCUCGCUCACUG
DNA: B1 DNA 2
binding result [4]: no binding
binding result [5]: binds
